Experimental data reported in the supplement of paper PMC10126150.
± gives the standard deviation of the averaged measurements.

Test system: ATP
Test: switch fluorescence ratio, 500 uM ATP over buffer (Cy3 cluster intensity, sum of 5 cycles each) (fold (ratio)); higher = stronger signal-on switching upon ATP binding; sequences stand for … in TCGTCGGCAGCGTCAGATGTGTATAAGAGACAGTTTTTTTTTTTTTTTTTTTTTTTTT…TC
Conditions: aptamer strand: ATP DNA aptamer (quencher-CACCTGGGGGAGTATTGCGGAGGAAGG + anchor), 100 nM annealed; ATP concentration: 500 uM
Method in brief: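 Imaging in selection buffer was followed by imaging after 15 min with 500 uM ATP at 22 °C, for Cy3-labelled switching-strand clusters annealed to 100 nM quencher-labelled ATP aptamer on a modified Illumina MiSeq flow-cell. Five of these buffer/ATP cycles ran, separated by NaOH stripping and re-annealing. The fluorescence ratio per cluster is summed target-cycle over summed buffer-cycle Cy3 intensity, averaged per switch-domain sequence; clusters outside 100-1000 RFU were removed.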
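Further: ATP exposure 15 min at 22 °C before imaging.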

With GGTTCAAGGC the switch fluorescence ratio was 1.05 ± 0.051.
Sequence GGTTCATCGG has a switch fluorescence ratio of 0.9912 ± 0.0029.
GGTTCATGAT gave a switch fluorescence ratio of 0.993 ± 0.024.
GGTTCCGCGG showed a switch fluorescence ratio of 1.11 ± 0.025.
For GGTTCCGGTA, the switch fluorescence ratio was 0.9998 ± 0.00095.
GGTTCGAGAC gave a switch fluorescence ratio of 1.01 ± 0.025.
Sequence GGTTCGGGGT has a switch fluorescence ratio of 0.982 ± 0.012.
GGTTCGTCAC was tested, and the switch fluorescence ratio was 1.11 ± 0.1.
In the case of GGTTCGTCGT, the switch fluorescence ratio is reported as 0.987 ± 0.02.
GGTTCGTGTC was tested, and the switch fluorescence ratio was 0.974 ± 0.016.
With GGTTCTCAGG the switch fluorescence ratio was 1.02 ± 0.011.
GGTTCTGGCG showed a switch fluorescence ratio of 0.992 ± 0.045.
For GGTTCTGGGC, the switch fluorescence ratio was 0.9601 ± 0.0026.
GGTTCTTGGT showed a switch fluorescence ratio of 0.949 ± 0.028.
With GGTTCTTTTT the switch fluorescence ratio was 1.02 ± 0.011.
Work on GGTTGAAGGG yielded a switch fluorescence ratio of 1.014 ± 0.0091.
With GGTTGAATGA the switch fluorescence ratio was 0.992 ± 0.053.
With GGTTGAGGCG the switch fluorescence ratio was 0.981 ± 0.054.
With GGTTGAGGTC the switch fluorescence ratio was 1 ± 0.023.
GGTTGAGTCG showed a switch fluorescence ratio of 0.989 ± 0.014.
For GGTTGAGTTC, the switch fluorescence ratio was 0.948 ± 0.036.
Work on GGTTGATCCG yielded a switch fluorescence ratio of 1.01 ± 0.0092.
GGTTGCGATC showed a switch fluorescence ratio of 1.08 ± 0.03.
GGTTGCGGGG showed a switch fluorescence ratio of 0.9855 ± 0.0082.
GGTTGCTTGA showed a switch fluorescence ratio of 0.9848 ± 0.002.
GGTTGGCAGA showed a switch fluorescence ratio of 0.99 ± 0.059.
With GGTTGGGCGG the switch fluorescence ratio was 1.01 ± 0.026.
GGTTGGGCTC was tested, and the switch fluorescence ratio was 1.001 ± 0.0099.
Sequence GGTTGGGGAG has a switch fluorescence ratio of 0.985 ± 0.019.
GGTTGGGGCA was tested, and the switch fluorescence ratio was 0.985 ± 0.049.
For GGTTGGGGCT, the switch fluorescence ratio was 0.987 ± 0.039.
In the case of GGTTGGGGGA, the switch fluorescence ratio is reported as 1.02 ± 0.024.
With GGTTGGTTGT the switch fluorescence ratio was 1.15 ± 0.21.
For GGTTGTGGGC, the switch fluorescence ratio was 0.992 ± 0.019.
GGTTGTGGGT was tested, and the switch fluorescence ratio was 0.996 ± 0.015.
Sequence GGTTGTTCTG has a switch fluorescence ratio of 0.997 ± 0.015.
GGTTGTTTCT gave a switch fluorescence ratio of 0.997 ± 0.0057.
Work on GGTTTAAAAA yielded a switch fluorescence ratio of 0.969 ± 0.036.
Work on GGTTTAATTG yielded a switch fluorescence ratio of 1.026 ± 0.0085.
GGTTTAGAGA showed a switch fluorescence ratio of 1.02 ± 0.069.
Sequence GGTTTAGCCT has a switch fluorescence ratio of 1.04 ± 0.023.
Work on GGTTTAGCTG yielded a switch fluorescence ratio of 0.984 ± 0.041.
With GGTTTAGTTG the switch fluorescence ratio was 0.9744 ± 0.0062.
GGTTTAGTTT gave a switch fluorescence ratio of 0.99 ± 0.035.
With GGTTTATATA the switch fluorescence ratio was 1.006 ± 0.0018.
With GGTTTATCAA the switch fluorescence ratio was 1.0008 ± 0.00076.
Sequence GGTTTATCAG has a switch fluorescence ratio of 0.983 ± 0.021.
For GGTTTATTAT, the switch fluorescence ratio was 1.02 ± 0.017.
Sequence GGTTTCAGCA has a switch fluorescence ratio of 1.01 ± 0.042.
With GGTTTCCGGG the switch fluorescence ratio was 1.01 ± 0.035.
For GGTTTCCTGT, the switch fluorescence ratio was 1.01 ± 0.043.
GGTTTCGTTG showed a switch fluorescence ratio of 1 ± 0.046.
With GGTTTGAGAA the switch fluorescence ratio was 1.018 ± 0.0031.
GGTTTGAGAG showed a switch fluorescence ratio of 0.989 ± 0.048.
With GGTTTGATGC the switch fluorescence ratio was 0.962 ± 0.055.
GGTTTGCACG was tested, and the switch fluorescence ratio was 0.992 ± 0.042.
GGTTTGGATC gave a switch fluorescence ratio of 1.02 ± 0.018.
GGTTTGGTCG showed a switch fluorescence ratio of 1.01 ± 0.037.
For GGTTTGGTGG, the switch fluorescence ratio was 0.992 ± 0.028.
GGTTTGGTTC was tested, and the switch fluorescence ratio was 0.957 ± 0.083.
GGTTTGGTTG gave a switch fluorescence ratio of 1.003 ± 0.008.
With GGTTTGGTTT the switch fluorescence ratio was 1 ± 0.021.
GGTTTGTAGG was tested, and the switch fluorescence ratio was 0.954 ± 0.02.
GGTTTGTGCT gave a switch fluorescence ratio of 0.94 ± 0.051.
In the case of GGTTTGTGGT, the switch fluorescence ratio is reported as 1.03 ± 0.062.
GGTTTGTTTG was tested, and the switch fluorescence ratio was 0.999 ± 0.025.
With GGTTTTCACC the switch fluorescence ratio was 0.9866 ± 0.0065.
With GGTTTTCGAA the switch fluorescence ratio was 1.01 ± 0.042.
GGTTTTCGGG showed a switch fluorescence ratio of 0.969 ± 0.035.
GGTTTTCTGT was tested, and the switch fluorescence ratio was 0.997 ± 0.016.
GGTTTTGATT showed a switch fluorescence ratio of 0.998 ± 0.0089.
GGTTTTGGGA showed a switch fluorescence ratio of 0.998 ± 0.019.
GGTTTTGTGC showed a switch fluorescence ratio of 1.03 ± 0.091.
GGTTTTTCGA was tested, and the switch fluorescence ratio was 0.983 ± 0.034.
In the case of GGTTTTTCGC, the switch fluorescence ratio is reported as 1.028 ± 0.0029.
GGTTTTTGGG was tested, and the switch fluorescence ratio was 0.994 ± 0.033.
In the case of GGTTTTTGGT, the switch fluorescence ratio is reported as 1 ± 0.032.
GGTTTTTGTT gave a switch fluorescence ratio of 0.991 ± 0.039.
With GGTTTTTTTG the switch fluorescence ratio was 1.02 ± 0.037.
GTAAAAGCTC gave a switch fluorescence ratio of 1.02 ± 0.018.
Sequence GTAAAAGGGT has a switch fluorescence ratio of 1 ± 0.02.
Sequence GTAAAAGTCG has a switch fluorescence ratio of 1.03 ± 0.015.
GTAAAATTGG was tested, and the switch fluorescence ratio was 0.998 ± 0.025.
In the case of GTAAGAAGGA, the switch fluorescence ratio is reported as 1.02 ± 0.07.
GTAAGAGCGG showed a switch fluorescence ratio of 0.9983 ± 0.0065.
GTAAGCAAAG was tested, and the switch fluorescence ratio was 1.2 ± 0.081.
With GTAAGGAGGG the switch fluorescence ratio was 0.981 ± 0.032.
Sequence GTAAGGGAAT has a switch fluorescence ratio of 0.9718 ± 0.0065.
In the case of GTAAGGGATT, the switch fluorescence ratio is reported as 1.025 ± 0.0068.
For GTAAGGGGGA, the switch fluorescence ratio was 0.984 ± 0.031.
Sequence GTAAGGGGGC has a switch fluorescence ratio of 0.984 ± 0.011.
In the case of GTAAGTACTG, the switch fluorescence ratio is reported as 1.36 ± 0.015.
GTAATAGGAG gave a switch fluorescence ratio of 1.02 ± 0.039.
Work on GTAATCGATT yielded a switch fluorescence ratio of 1.07 ± 0.022.
GTAATGATCT gave a switch fluorescence ratio of 1.06 ± 0.036.
Work on GTAATTAATT yielded a switch fluorescence ratio of 0.978 ± 0.025.
Work on GTAATTGCTG yielded a switch fluorescence ratio of 1.01 ± 0.059.
With GTAATTGGGT the switch fluorescence ratio was 0.986 ± 0.015.
GTAATTTCGT gave a switch fluorescence ratio of 0.99733 ± 0.0004.
In the case of GTACCATCTG, the switch fluorescence ratio is reported as 0.976 ± 0.02.
